Non-standard residues stand in square brackets, D forms with d. No end group written: not given here. Ala(4-thiazolyl) = N[C@@H](Cc1cscn1)C(=O)O; 1Nal = N[C@@H](Cc1cccc2ccccc12)C(=O)O; Nle = CCCC[C@H](N)C(=O)O
Key:
Experiment in all cases: cell-based or functional assay
human GLP-1 receptor [1] = target: T1, human GLP-1 receptor (human, UniProt P43220 24-463)
human glucagon receptor [2] = target: T2, human glucagon receptor (human, UniProt P47871 26-477)
human GLP-1 receptor [3] = target: T1, human GLP-1 receptor; remark: listed apart in the source
human glucagon receptor [4] = target: T2, human glucagon receptor; remark: listed apart in the source

T2 sequence (P47871 26-477): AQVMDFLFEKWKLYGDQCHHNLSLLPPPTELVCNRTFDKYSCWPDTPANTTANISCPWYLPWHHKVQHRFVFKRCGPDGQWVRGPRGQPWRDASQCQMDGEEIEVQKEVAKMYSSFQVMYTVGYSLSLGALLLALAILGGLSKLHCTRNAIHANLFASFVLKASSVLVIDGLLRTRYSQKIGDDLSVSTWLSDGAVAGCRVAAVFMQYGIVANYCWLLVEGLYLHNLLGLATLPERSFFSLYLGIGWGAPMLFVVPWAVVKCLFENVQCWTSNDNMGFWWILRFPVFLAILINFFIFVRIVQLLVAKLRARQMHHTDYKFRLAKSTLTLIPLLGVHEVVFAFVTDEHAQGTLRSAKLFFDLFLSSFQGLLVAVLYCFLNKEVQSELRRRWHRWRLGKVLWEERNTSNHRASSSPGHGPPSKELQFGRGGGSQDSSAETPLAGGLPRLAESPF

B1: SEQ ID NO: 5 (peptide)
peptide: [Ala(4-thiazolyl)]SQGTFTSDYSKQLESRRAQEFIEWLLAGGPESGAPPPS-OH
modifications: N-terminus assumed
SMILES: CC[C@H](C)[C@H](NC(=O)[C@H](Cc1ccccc1)NC(=O)[C@H](CCC(=O)O)NC(=O)[C@H](CCC(N)=O)NC(=O)[C@H](C)NC(=O)[C@H](CCCNC(=N)N)NC(=O)[C@H](CCCNC(=N)N)NC(=O)[C@H](CO)NC(=O)[C@H](CCC(=O)O)NC(=O)[C@H](CC(C)C)NC(=O)[C@H](CCC(N)=O)NC(=O)[C@H](CCCCN)NC(=O)[C@H](CO)NC(=O)[C@H](Cc1ccc(O)cc1)NC(=O)[C@H](CC(=O)O)NC(=O)[C@H](CO)NC(=O)[C@@H](NC(=O)[C@H](Cc1ccccc1)NC(=O)[C@@H](NC(=O)CNC(=O)[C@H](CCC(N)=O)NC(=O)[C@H](CO)NC(=O)[C@@H](N)Cc1cscn1)[C@@H](C)O)[C@@H](C)O)C(=O)N[C@@H](CCC(=O)O)C(=O)N[C@@H](Cc1c[nH]c2ccccc12)C(=O)N[C@@H](CC(C)C)C(=O)N[C@@H](CC(C)C)C(=O)N[C@@H](C)C(=O)NCC(=O)NCC(=O)N1CCC[C@H]1C(=O)N[C@@H](CCC(=O)O)C(=O)N[C@@H](CO)C(=O)NCC(=O)N[C@@H](C)C(=O)N1CCC[C@H]1C(=O)N1CCC[C@H]1C(=O)N1CCC[C@H]1C(=O)N[C@@H](CO)C(=O)O
- EC50 hGLP-1 R [pM], cAMP formation (human GLP-1 receptor [1]): 2190 pM
- EC50 hGLUC R [pM], cAMP formation (human glucagon receptor [2]): 0.6 pM
- EC50 hGLP-1R, cAMP formation (human GLP-1 receptor [3]): 2.19 nM
- EC50 hGlucagon-R, cAMP formation (human glucagon receptor [4]): 0.0006 nM

B2: SEQ ID NO: 35 (peptide)
peptide: HSQGTFTSDLSKQLESRRAQDFIEWLLATGPESGAPPPS-OH
- EC50 hGLP-1R, cAMP formation (human GLP-1 receptor [3]): 0.934 nM
- EC50 hGlucagon-R, cAMP formation (human glucagon receptor [4]): 0.0071 nM

B3: SEQ ID NO: 34 (peptide)
peptide: HSQGTFTSDLSKQLESRRAQEFIEWLLATGPESGAPPPS-OH
- EC50 hGLP-1R, cAMP formation (human GLP-1 receptor [3]): 0.363 nM
- EC50 hGlucagon-R, cAMP formation (human glucagon receptor [4]): 0.0014 nM

B4: SEQ ID NO: 7 (peptide)
peptide: [Ala(4-thiazolyl)]SQGTFTSDVSKQLESRRAQEFIEWLLATGPESGAPPPS-OH
modifications: N-terminus assumed
SMILES: CC[C@H](C)[C@H](NC(=O)[C@H](Cc1ccccc1)NC(=O)[C@H](CCC(=O)O)NC(=O)[C@H](CCC(N)=O)NC(=O)[C@H](C)NC(=O)[C@H](CCCNC(=N)N)NC(=O)[C@H](CCCNC(=N)N)NC(=O)[C@H](CO)NC(=O)[C@H](CCC(=O)O)NC(=O)[C@H](CC(C)C)NC(=O)[C@H](CCC(N)=O)NC(=O)[C@H](CCCCN)NC(=O)[C@H](CO)NC(=O)[C@@H](NC(=O)[C@H](CC(=O)O)NC(=O)[C@H](CO)NC(=O)[C@@H](NC(=O)[C@H](Cc1ccccc1)NC(=O)[C@@H](NC(=O)CNC(=O)[C@H](CCC(N)=O)NC(=O)[C@H](CO)NC(=O)[C@@H](N)Cc1cscn1)[C@@H](C)O)[C@@H](C)O)C(C)C)C(=O)N[C@@H](CCC(=O)O)C(=O)N[C@@H](Cc1c[nH]c2ccccc12)C(=O)N[C@@H](CC(C)C)C(=O)N[C@@H](CC(C)C)C(=O)N[C@@H](C)C(=O)N[C@H](C(=O)NCC(=O)N1CCC[C@H]1C(=O)N[C@@H](CCC(=O)O)C(=O)N[C@@H](CO)C(=O)NCC(=O)N[C@@H](C)C(=O)N1CCC[C@H]1C(=O)N1CCC[C@H]1C(=O)N1CCC[C@H]1C(=O)N[C@@H](CO)C(=O)O)[C@@H](C)O
- EC50 hGLP-1 R [pM], cAMP formation (human GLP-1 receptor [1]): 4190 pM
- EC50 hGLUC R [pM], cAMP formation (human glucagon receptor [2]): 2.4 pM
- EC50 hGLP-1R, cAMP formation (human GLP-1 receptor [3]): 4.19 nM
- EC50 hGlucagon-R, cAMP formation (human glucagon receptor [4]): 0.0024 nM

B5: SEQ ID NO: 6 (peptide)
peptide: [Ala(4-thiazolyl)]SQGTFTSDYSKQLESRRAQEFIEWLLATGPESGAPPPS-OH
modifications: N-terminus assumed
SMILES: CC[C@H](C)[C@H](NC(=O)[C@H](Cc1ccccc1)NC(=O)[C@H](CCC(=O)O)NC(=O)[C@H](CCC(N)=O)NC(=O)[C@H](C)NC(=O)[C@H](CCCNC(=N)N)NC(=O)[C@H](CCCNC(=N)N)NC(=O)[C@H](CO)NC(=O)[C@H](CCC(=O)O)NC(=O)[C@H](CC(C)C)NC(=O)[C@H](CCC(N)=O)NC(=O)[C@H](CCCCN)NC(=O)[C@H](CO)NC(=O)[C@H](Cc1ccc(O)cc1)NC(=O)[C@H](CC(=O)O)NC(=O)[C@H](CO)NC(=O)[C@@H](NC(=O)[C@H](Cc1ccccc1)NC(=O)[C@@H](NC(=O)CNC(=O)[C@H](CCC(N)=O)NC(=O)[C@H](CO)NC(=O)[C@@H](N)Cc1cscn1)[C@@H](C)O)[C@@H](C)O)C(=O)N[C@@H](CCC(=O)O)C(=O)N[C@@H](Cc1c[nH]c2ccccc12)C(=O)N[C@@H](CC(C)C)C(=O)N[C@@H](CC(C)C)C(=O)N[C@@H](C)C(=O)N[C@H](C(=O)NCC(=O)N1CCC[C@H]1C(=O)N[C@@H](CCC(=O)O)C(=O)N[C@@H](CO)C(=O)NCC(=O)N[C@@H](C)C(=O)N1CCC[C@H]1C(=O)N1CCC[C@H]1C(=O)N1CCC[C@H]1C(=O)N[C@@H](CO)C(=O)O)[C@@H](C)O
- EC50 hGLP-1 R [pM], cAMP formation (human GLP-1 receptor [1]): 9300 pM
- EC50 hGLUC R [pM], cAMP formation (human glucagon receptor [2]): 0.5 pM
- EC50 hGLP-1R, cAMP formation (human GLP-1 receptor [3]): 9.3 nM
- EC50 hGlucagon-R, cAMP formation (human glucagon receptor [4]): 0.0005 nM

B6: SEQ ID NO: 36 (peptide)
peptide: HSQGTFTSDLSKQ[Nle]ESRRAQEFIEWLLATGPESGAPPPS-OH
modifications: N-terminus assumed
SMILES: CCCC[C@H](NC(=O)[C@H](CCC(N)=O)NC(=O)[C@H](CCCCN)NC(=O)[C@H](CO)NC(=O)[C@H](CC(C)C)NC(=O)[C@H](CC(=O)O)NC(=O)[C@H](CO)NC(=O)[C@@H](NC(=O)[C@H](Cc1ccccc1)NC(=O)[C@@H](NC(=O)CNC(=O)[C@H](CCC(N)=O)NC(=O)[C@H](CO)NC(=O)[C@@H](N)Cc1c[nH]cn1)[C@@H](C)O)[C@@H](C)O)C(=O)N[C@@H](CCC(=O)O)C(=O)N[C@@H](CO)C(=O)N[C@@H](CCCNC(=N)N)C(=O)N[C@@H](CCCNC(=N)N)C(=O)N[C@@H](C)C(=O)N[C@@H](CCC(N)=O)C(=O)N[C@@H](CCC(=O)O)C(=O)N[C@@H](Cc1ccccc1)C(=O)N[C@H](C(=O)N[C@@H](CCC(=O)O)C(=O)N[C@@H](Cc1c[nH]c2ccccc12)C(=O)N[C@@H](CC(C)C)C(=O)N[C@@H](CC(C)C)C(=O)N[C@@H](C)C(=O)N[C@H](C(=O)NCC(=O)N1CCC[C@H]1C(=O)N[C@@H](CCC(=O)O)C(=O)N[C@@H](CO)C(=O)NCC(=O)N[C@@H](C)C(=O)N1CCC[C@H]1C(=O)N1CCC[C@H]1C(=O)N1CCC[C@H]1C(=O)N[C@@H](CO)C(=O)O)[C@@H](C)O)[C@@H](C)CC
- EC50 hGLP-1R, cAMP formation (human GLP-1 receptor [3]): 0.358 nM
- EC50 hGlucagon-R, cAMP formation (human glucagon receptor [4]): 0.0014 nM

B7: SEQ ID NO: 33 (peptide)
peptide: HSQGTFTSD[1Nal]SKQLESRRAQEFIEWLLATGPESGAPPPS-OH
modifications: N-terminus assumed
SMILES: CC[C@H](C)[C@H](NC(=O)[C@H](Cc1ccccc1)NC(=O)[C@H](CCC(=O)O)NC(=O)[C@H](CCC(N)=O)NC(=O)[C@H](C)NC(=O)[C@H](CCCNC(=N)N)NC(=O)[C@H](CCCNC(=N)N)NC(=O)[C@H](CO)NC(=O)[C@H](CCC(=O)O)NC(=O)[C@H](CC(C)C)NC(=O)[C@H](CCC(N)=O)NC(=O)[C@H](CCCCN)NC(=O)[C@H](CO)NC(=O)[C@H](Cc1cccc2ccccc12)NC(=O)[C@H](CC(=O)O)NC(=O)[C@H](CO)NC(=O)[C@@H](NC(=O)[C@H](Cc1ccccc1)NC(=O)[C@@H](NC(=O)CNC(=O)[C@H](CCC(N)=O)NC(=O)[C@H](CO)NC(=O)[C@@H](N)Cc1c[nH]cn1)[C@@H](C)O)[C@@H](C)O)C(=O)N[C@@H](CCC(=O)O)C(=O)N[C@@H](Cc1c[nH]c2ccccc12)C(=O)N[C@@H](CC(C)C)C(=O)N[C@@H](CC(C)C)C(=O)N[C@@H](C)C(=O)N[C@H](C(=O)NCC(=O)N1CCC[C@H]1C(=O)N[C@@H](CCC(=O)O)C(=O)N[C@@H](CO)C(=O)NCC(=O)N[C@@H](C)C(=O)N1CCC[C@H]1C(=O)N1CCC[C@H]1C(=O)N1CCC[C@H]1C(=O)N[C@@H](CO)C(=O)O)[C@@H](C)O
- EC50 hGLP-1R, cAMP formation (human GLP-1 receptor [3]): 0.159 nM
- EC50 hGlucagon-R, cAMP formation (human glucagon receptor [4]): 0.0011 nM

B8: SEQ ID NO: 8 (peptide)
peptide: [Ala(4-thiazolyl)]SQGTFTSDISKQLESRRAQEFIEWLLATGPESGAPPPS-OH
modifications: N-terminus assumed
SMILES: CC[C@H](C)[C@H](NC(=O)[C@H](Cc1ccccc1)NC(=O)[C@H](CCC(=O)O)NC(=O)[C@H](CCC(N)=O)NC(=O)[C@H](C)NC(=O)[C@H](CCCNC(=N)N)NC(=O)[C@H](CCCNC(=N)N)NC(=O)[C@H](CO)NC(=O)[C@H](CCC(=O)O)NC(=O)[C@H](CC(C)C)NC(=O)[C@H](CCC(N)=O)NC(=O)[C@H](CCCCN)NC(=O)[C@H](CO)NC(=O)[C@@H](NC(=O)[C@H](CC(=O)O)NC(=O)[C@H](CO)NC(=O)[C@@H](NC(=O)[C@H](Cc1ccccc1)NC(=O)[C@@H](NC(=O)CNC(=O)[C@H](CCC(N)=O)NC(=O)[C@H](CO)NC(=O)[C@@H](N)Cc1cscn1)[C@@H](C)O)[C@@H](C)O)[C@@H](C)CC)C(=O)N[C@@H](CCC(=O)O)C(=O)N[C@@H](Cc1c[nH]c2ccccc12)C(=O)N[C@@H](CC(C)C)C(=O)N[C@@H](CC(C)C)C(=O)N[C@@H](C)C(=O)N[C@H](C(=O)NCC(=O)N1CCC[C@H]1C(=O)N[C@@H](CCC(=O)O)C(=O)N[C@@H](CO)C(=O)NCC(=O)N[C@@H](C)C(=O)N1CCC[C@H]1C(=O)N1CCC[C@H]1C(=O)N1CCC[C@H]1C(=O)N[C@@H](CO)C(=O)O)[C@@H](C)O
- EC50 hGLP-1 R [pM], cAMP formation (human GLP-1 receptor [1]): 5800 pM
- EC50 hGLUC R [pM], cAMP formation (human glucagon receptor [2]): 2.2 pM
- EC50 hGLP-1R, cAMP formation (human GLP-1 receptor [3]): 5.8 nM
- EC50 hGlucagon-R, cAMP formation (human glucagon receptor [4]): 0.0022 nM

From US20150368311A1 (Sanofi, published 2015)
